From patent US20240307453A1, “METHODS FOR CONTROLLING BLEEDING IN A SUBJECT AFFLICTED WITH HERMANSKY PUDLAK SYNDROME USING PLATELET DERIVATIVE COMPOSITIONS” (Cellphire, Inc., priority 2023, published 2024)

How the values were obtained:
[1] = system: phosphatidylserine (PS); experiment: FPH thrombin generation response to PS blocking by lactadherin; assay type: biochemical, human
Description: Lactadherin (Haematologic Technologies, haemtech.com) was thawed per manufacturer instructions. FPHs were incubated with lactadherin at room temperature for 30 minutes at a concentration of 0, 25, 50, 100, and 200 μg/ml. 60 mM GPRP (BACHEM, bachem.com), thrombin (Sigma Aldrich, sigmaaldrich.com) and Octoplas (Octophrama, octopharma.com) were thawed according to manufacturer's guidelines. CLARIOstarPlus was used to perform TGA. A master mix of Octaplas, PRP reagent (Diagnostica Stago, Cat. No. 86196), and GPRP was prepared in a ratio of 14:3:1, respectively. Flu substrate and Fluo-buffer were combined according to manufacturer's guidelines to create FluCa (Diagnostica Stago, stago.com). Master mix and the FluCa solution were placed in the 37° C. air incubator with agitation for 45±5 minutes. […] 10 μl of each sample was dispensed into selected wells of a 96-well plate (Corning, corning.com) by reverse pipetting. TGA dilution buffer for thrombin was used in the thrombin standard ladder. CLARIOstarPlus injectors 1 and 2 were primed with master mix and FluCa solution with 250 μl, then the injector was placed in the active position. The CLARIOstarPlus TGA program was loaded with parameters for TGA assay with injectors set to add 90 μl of master mix and 40 μl of FluCa solution to each well. Plate was inserted to be read.

[2] = system: phosphatidylserine (PS) surface on FPH; experiment: T-TAS of FPH with increasing dose of lactadherin; assay type: biochemical, human; conditions: highest lactadherin concentration (200 μg/mL), FPH 8×10^4 cells/μl
Description: Cells were adjusted to 8×10^4 cells/μl by diluting in Octaplas and in preparations of either 0, 100, or 200 μg/mL of lactadherin and incubated for 30 minutes at room temperature before acquisition on T-TAS® (Zacros®, zacros.con.co.jp). Samples (480 μl) were normalized to the above counts and then transferred to microcentrifuge tubes containing 20 ul of CaCTI (CaCl2 and corn trypsin inhibitor). The CaCTI-treated samples were transferred to sample reservoirs on a T-TAS®. The sample reservoirs were then inserted into the AR microfluidic chips and acquired on the T-TAS. […] This confirms the necessity of retaining the negatively charged PS surface on FPH to generate thrombin.

B1: lactadherin: lactadherin used to block PS expression (protein, UniProt Q95114 19-427, looked up)
Lactadherin: ASGDFCDSSLCLHGGTCLLNEDRTPPFYCLCPEGFTGLLCNETEHGPCFPNPCHNDAECQVTDDSHRGDVFIQYICKCPLGYVGIHCETTCTSPLGMQTGAIADSQISASSMHLGFMGLQRWAPELARLHQTGIVNAWTSGNYDKNPWIQVNLMRKMWVTGVVTQGASRAGSAEYLKTFKVAYSTDGRQFQFIQVAGRSGDKIFIGNVNNSGLKINLFDTPLETQYVRLVPIICHRGCTLRFELLGCELNGCTEPLGLKDNTIPNKQITASSYYKTWGLSAFSWFPYYARLDNQGKFNAWTAQTNSASEWLQIDLGSQKRVTGIITQGARDFGHIQYVAAYRVAYGDDGVTWTEYKDPGASESKIFPGNMDNNSHKKNIFETPFQARFVRIQPVAWHNRITLRVELLGC
thrombin generation of FPH ([1]; lactadherin 0, 25, 50, 100, 200 μg/ml): decreasing thrombin generation
maximum peak time of thrombin generation of FPH ([1]; lactadherin 0-200 μg/ml, 1:64 dilution): increasing maximum peak time
effect on time to thrombus formation of FPH [2]: approximately doubled the time to thrombus formation
